Measurements: patent publication US20100136594

Assays:
[1] = biological target: T1, 20-mer peptide substrate GEIIGGTECKPHSRPYMAYL (SEQ ID NO: 1)
T1 chain: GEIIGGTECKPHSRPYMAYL

[2] = biological target: T2, Dipeptide substrate Gly-Arg labeled with alpha-methylcoumarin (AMC)
T2 chain: GR

B1: Dipeptidyl peptidase I (DPPI) (protein)
chain 1: not shown
chain 2: LPTSWDWRNVHGINFVSPVRNQASCGSCYSFASMGMLEARIRILTNNSQTPILSPQEVVSCSQYAQGCEGGFPYLIAGKYAQDFGLVEEACFPYTGTDSPCKMKEDCFRYYSSEYHYVGGFYGGCNEALMKLELVHHGPMAVAFEVYDDFLHYKKGIYHHTGLR
chain 3: not shown
For B1, the KM [1] was 62 µM, the Kcat [1] was “about 62 µM, 1.15 sec^-1, and 1.95×10^4 M^-1sec^-1, respectively” and the kcat (Mmin^-1) [1] was 69 min⁻¹. It also gave a KM [2] of 64 µM and a kcat (Mmin^-1) [2] of 5670 min⁻¹.
